Laboratory results from article PMC11723922, “The TGF-β mimic TGM4 achieves cell specificity through combinatorial surface co-receptor binding” (EMBO Reports, 2024).

T1: Mouse CD44 extracellular domain, recombinant (mouse, UniProt P15379 23-685)
T1 construct: CD44, mouse, extracellular domain; also called mCD44; murine CD44; source: expi293 cells, purified from the conditioned medium
T1 sequence (looked up): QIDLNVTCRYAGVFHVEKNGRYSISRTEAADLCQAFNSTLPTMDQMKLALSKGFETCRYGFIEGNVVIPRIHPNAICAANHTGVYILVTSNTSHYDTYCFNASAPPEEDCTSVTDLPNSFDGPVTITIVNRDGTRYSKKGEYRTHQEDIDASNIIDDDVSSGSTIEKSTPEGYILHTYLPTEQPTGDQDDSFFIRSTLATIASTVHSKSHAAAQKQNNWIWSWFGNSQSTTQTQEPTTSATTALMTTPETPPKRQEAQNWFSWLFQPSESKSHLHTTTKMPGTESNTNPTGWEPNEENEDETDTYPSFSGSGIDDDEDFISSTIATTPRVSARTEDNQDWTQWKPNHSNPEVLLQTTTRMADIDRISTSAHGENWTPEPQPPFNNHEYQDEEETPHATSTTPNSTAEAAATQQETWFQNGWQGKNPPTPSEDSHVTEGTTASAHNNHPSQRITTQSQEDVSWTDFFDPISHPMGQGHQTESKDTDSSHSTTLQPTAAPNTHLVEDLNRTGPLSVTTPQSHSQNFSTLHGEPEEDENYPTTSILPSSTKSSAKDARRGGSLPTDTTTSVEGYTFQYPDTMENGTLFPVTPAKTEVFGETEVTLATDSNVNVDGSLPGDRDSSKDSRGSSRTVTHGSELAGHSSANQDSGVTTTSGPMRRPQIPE

B1: TGM4 D4-5, recombinant (domain or fragment)
chain: RCKPLETNVSVHYEYFTMTNETGRKEGTPAEVDKGGKYPQHTCVRKFCDKSPYTCSVKGPIFGECLDGQWNFTALDECLNARGCNSDDLFDKLGFEGVMVREEEGSDSYKDDFVRFYATGSKVNAECKGKTVQLECSDGEWHDPGTKTVHRCTKEGIRAL
modifications: biotinylated in the streptavidin pull-downs; Alexa Fluor 488 label in flow cytometry; unlabelled in ITC and as competitor
B2: TGM1 D4-5, recombinant (domain or fragment)
chain: RCKPLEANESVHYEYFTMTNETDKKKGPPAKVGKSGKYPEHTCVKKVCSKWPYTCSTGGPIFGECIGATWNFTALMECINARGCSSDDLFDKLGFEKVIVRKGEGSDSYKDDFARFYATGSKVIAECGGKTVRLECSNGEWHEPGTKTVHRCTKDGIRTL

How the values were obtained:
[1] = biological target: T1, Mouse CD44 extracellular domain, …; experiment: ITC; TGM D4-5 fragments with mouse or human CD44 extracellular domain; 25 mM Na2HPO4, 50 mM NaCl, pH 6.0, 35 °C; two datasets globally fit (NITPIC, SEDPHAT); conditions: both partners purified
[2] = biological target: T2, Human CD44 extracellular domain, recombinant (human, UniProt P16070 21-649); experiment: as above; conditions: both partners purified
T2 construct: CD44, human, extracellular domain; also called hCD44; source: expi293 cells, purified from the conditioned medium
T2 sequence (P16070 21-649): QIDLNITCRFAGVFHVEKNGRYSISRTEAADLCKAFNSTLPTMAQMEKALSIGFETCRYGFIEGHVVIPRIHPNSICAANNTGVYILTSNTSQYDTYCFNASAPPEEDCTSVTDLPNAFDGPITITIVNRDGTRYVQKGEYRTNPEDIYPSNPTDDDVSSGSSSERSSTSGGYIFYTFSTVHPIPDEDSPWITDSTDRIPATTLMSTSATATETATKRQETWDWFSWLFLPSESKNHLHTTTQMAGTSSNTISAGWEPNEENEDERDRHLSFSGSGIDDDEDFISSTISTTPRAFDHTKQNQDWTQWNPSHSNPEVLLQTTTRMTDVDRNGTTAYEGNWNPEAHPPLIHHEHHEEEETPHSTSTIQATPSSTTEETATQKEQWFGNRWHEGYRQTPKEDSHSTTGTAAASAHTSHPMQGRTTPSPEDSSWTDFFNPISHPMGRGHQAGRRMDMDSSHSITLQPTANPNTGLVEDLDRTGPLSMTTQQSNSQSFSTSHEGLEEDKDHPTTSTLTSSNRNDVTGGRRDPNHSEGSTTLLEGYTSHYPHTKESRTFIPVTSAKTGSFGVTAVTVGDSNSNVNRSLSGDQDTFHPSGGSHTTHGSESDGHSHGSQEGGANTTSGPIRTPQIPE

Binder	Kd [1] [nM]	Kd [2] [nM]
B1	20	78
B2	30	122
